These results are taken from patent US20240301052A1 (LANOVA MEDICINES DEVELOPMENT, published 2024).

What is called EC50 is the midpoint of the concentration-response curve. Low values mean higher potency in that assay, high ones lower potency in that assay.

The experiment addresses T1, mouse SLC34A2 (mouse, UniProt Q9DBP0 1-697).
T1 construct: whole, on cells
T1 sequence (looked up): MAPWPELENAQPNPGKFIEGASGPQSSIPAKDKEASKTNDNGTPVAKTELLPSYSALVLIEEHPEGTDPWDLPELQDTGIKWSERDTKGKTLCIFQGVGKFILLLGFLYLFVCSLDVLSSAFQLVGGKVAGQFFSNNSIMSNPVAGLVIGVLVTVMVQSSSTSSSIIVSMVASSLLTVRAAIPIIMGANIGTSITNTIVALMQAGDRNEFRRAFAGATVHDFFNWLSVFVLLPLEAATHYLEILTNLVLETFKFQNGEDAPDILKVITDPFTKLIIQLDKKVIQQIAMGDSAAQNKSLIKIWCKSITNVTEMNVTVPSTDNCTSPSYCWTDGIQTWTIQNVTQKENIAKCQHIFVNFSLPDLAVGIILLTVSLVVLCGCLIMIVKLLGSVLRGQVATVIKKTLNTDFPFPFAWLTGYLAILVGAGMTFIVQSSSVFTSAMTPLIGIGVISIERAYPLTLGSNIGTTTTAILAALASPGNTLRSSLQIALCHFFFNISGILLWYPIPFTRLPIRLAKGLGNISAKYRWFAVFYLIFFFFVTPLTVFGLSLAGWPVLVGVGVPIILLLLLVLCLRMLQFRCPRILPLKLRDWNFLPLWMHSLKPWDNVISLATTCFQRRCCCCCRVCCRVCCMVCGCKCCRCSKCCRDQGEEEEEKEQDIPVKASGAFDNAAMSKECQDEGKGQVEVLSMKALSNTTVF
As to the kind of experiment: FACS, HEK293/Mouse SLC34A2 cells.

B1: XMT-1536 (antibody, INN chains, looked up, V domains shown)
VH: QVQLVQSGAEVVKPGASVKMSCKASGYTFTGYNIHWVKQAPGQGLEWIGAIYPGNGDTSYKQKFRGRATLTADTSTSTVYMELSSLRSEDSAVYYCARGETARATFAYWGQGTLVTVSS
VL: DIQMTQSPSSLSASVGDRVTITCSASQDIGNFLNWYQQKPGKTVKVLIYYTSSLYSGVPSRFSGSGSGTDYTLTISSLQPEDFATYYCQQYSKLPLTFGQGTKLELK
modifications: rilsodotin auristatin payload
Molecule B1 displayed an EC50 of 6.13 nM.
